From patent US20240425612A1

What was measured:
[1] = target: hFcγRIIIa-158F-streptavidin-His (human) (UniProt P08637); assay: BLI
[2] = target: hFcγRIIIa-158V-streptavidin-His (human) (UniProt P08637); assay: BLI
hFcγRIIIa-158V-streptavidin-His (human), sequence (P08637 17-208 F176V): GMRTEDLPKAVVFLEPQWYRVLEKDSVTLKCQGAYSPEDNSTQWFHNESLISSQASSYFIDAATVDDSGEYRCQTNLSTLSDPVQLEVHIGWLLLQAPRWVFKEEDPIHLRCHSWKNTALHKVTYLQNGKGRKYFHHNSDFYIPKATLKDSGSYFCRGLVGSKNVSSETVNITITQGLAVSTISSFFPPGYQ

hFcγRIIIa-158F-streptavidin-His (human), sequence (P08637 17-208): as the sequence (P08637 17-208 F176V) above, with V160F counted along it

Trastuzumab-DE (S239D/I332E) from Xencor
Kd [1]: 67.3 nM
Kd [2]: 46.5 nM
